Laboratory results published in paper doi:10.1101/794511 (bioRxiv, 2019).

B1: Ascl1 amino acids 92-231 containing the bHLH domain, His-tagged (domain or fragment)
chain: MRCKRRLNFSGFGYSLPQQQPAAVARRNERERNRVKLVNLGFATLREHVPNGAANKKMSKVETLRSAVEYIRALQQLLDEHDAVSAAFQAGVLSPTISPNYSNDLNSMAGSPVSSYSSDEGSYDPLSPEEQELLDFTNWF

Assays:
native gel or EMSA = molecular target: the molecule itself; assay: native gel or EMSA
[1] = molecular target: B1; assay: native gel or EMSA

| Binder | binding result (native gel or EMSA) | binding result [1] |
| --- | --- | --- |
| B1 | binds |  |
| Gsx2^N253A amino acids 167-305 containing the mutated homeodomain, His-tagged (domain or fragment) not shown |  | binds |
